Drawing on article PMC3965211, this text covers fraction of the provided hKif15 in the complex for 1 substance.

The assay deals with Full-length human His6-Kif15 (human) (UniProt Q9NS87). The experiment in a line: glycerol gradient ultracentrifugation; 2.5 µM hTpx2 (dimer) + 80 nM hKif15 (tetramer), 5-40% glycerol gradient in 35 mM sodium phosphate buffer.
Sequence of Full-length human His6-Kif15 (human) (Q9NS87 whole entry): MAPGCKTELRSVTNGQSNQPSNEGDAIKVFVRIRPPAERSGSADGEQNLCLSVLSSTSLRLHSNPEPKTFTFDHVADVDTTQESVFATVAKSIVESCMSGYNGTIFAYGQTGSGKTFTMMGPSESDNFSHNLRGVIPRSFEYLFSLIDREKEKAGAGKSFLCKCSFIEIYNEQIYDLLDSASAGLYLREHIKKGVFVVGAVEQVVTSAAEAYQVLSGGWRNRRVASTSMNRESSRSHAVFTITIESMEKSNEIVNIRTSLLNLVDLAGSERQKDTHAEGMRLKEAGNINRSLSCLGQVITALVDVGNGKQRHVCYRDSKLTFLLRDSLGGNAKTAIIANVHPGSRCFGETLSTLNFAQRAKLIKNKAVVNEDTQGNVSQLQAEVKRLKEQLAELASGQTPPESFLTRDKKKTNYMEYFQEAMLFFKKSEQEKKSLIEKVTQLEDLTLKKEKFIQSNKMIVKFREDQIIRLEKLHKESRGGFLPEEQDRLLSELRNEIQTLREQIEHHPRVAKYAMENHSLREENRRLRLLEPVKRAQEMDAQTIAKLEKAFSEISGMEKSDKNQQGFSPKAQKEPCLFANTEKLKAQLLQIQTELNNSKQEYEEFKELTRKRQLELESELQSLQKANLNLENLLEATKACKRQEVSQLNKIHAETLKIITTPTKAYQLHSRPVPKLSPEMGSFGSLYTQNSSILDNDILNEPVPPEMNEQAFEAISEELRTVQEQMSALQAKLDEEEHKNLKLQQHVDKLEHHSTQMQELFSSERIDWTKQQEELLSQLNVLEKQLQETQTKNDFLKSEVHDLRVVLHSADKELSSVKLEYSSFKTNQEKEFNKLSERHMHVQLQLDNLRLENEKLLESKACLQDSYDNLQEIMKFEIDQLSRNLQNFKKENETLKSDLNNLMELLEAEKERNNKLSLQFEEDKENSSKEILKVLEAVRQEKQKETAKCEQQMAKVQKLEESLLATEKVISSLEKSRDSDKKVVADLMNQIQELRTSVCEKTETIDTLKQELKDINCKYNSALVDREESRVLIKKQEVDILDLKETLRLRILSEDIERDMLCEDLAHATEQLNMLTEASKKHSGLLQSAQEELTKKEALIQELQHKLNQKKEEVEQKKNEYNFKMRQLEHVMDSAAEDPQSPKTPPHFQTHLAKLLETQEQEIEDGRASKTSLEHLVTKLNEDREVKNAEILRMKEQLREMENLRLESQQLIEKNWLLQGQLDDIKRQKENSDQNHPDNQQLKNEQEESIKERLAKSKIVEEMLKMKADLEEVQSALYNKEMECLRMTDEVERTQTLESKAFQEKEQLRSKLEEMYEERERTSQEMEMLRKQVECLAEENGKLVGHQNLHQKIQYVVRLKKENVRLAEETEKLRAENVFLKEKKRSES

As for “human His6-Tpx2 (from UniProt Q9ULW0 1-747) (natural protein)”, the fraction of the provided hKif15 in the complex is 0.33.
